# Data published in patent US20170210813A1 (Regeneron, published 2017).
# T1: human PDGFRb.mFc (human)
# T1 construct: Soluble dimeric construct with mouse Fc; also called hPDGFRb.mFc; soluble human PDGFR-beta.mFc
# T1 chain: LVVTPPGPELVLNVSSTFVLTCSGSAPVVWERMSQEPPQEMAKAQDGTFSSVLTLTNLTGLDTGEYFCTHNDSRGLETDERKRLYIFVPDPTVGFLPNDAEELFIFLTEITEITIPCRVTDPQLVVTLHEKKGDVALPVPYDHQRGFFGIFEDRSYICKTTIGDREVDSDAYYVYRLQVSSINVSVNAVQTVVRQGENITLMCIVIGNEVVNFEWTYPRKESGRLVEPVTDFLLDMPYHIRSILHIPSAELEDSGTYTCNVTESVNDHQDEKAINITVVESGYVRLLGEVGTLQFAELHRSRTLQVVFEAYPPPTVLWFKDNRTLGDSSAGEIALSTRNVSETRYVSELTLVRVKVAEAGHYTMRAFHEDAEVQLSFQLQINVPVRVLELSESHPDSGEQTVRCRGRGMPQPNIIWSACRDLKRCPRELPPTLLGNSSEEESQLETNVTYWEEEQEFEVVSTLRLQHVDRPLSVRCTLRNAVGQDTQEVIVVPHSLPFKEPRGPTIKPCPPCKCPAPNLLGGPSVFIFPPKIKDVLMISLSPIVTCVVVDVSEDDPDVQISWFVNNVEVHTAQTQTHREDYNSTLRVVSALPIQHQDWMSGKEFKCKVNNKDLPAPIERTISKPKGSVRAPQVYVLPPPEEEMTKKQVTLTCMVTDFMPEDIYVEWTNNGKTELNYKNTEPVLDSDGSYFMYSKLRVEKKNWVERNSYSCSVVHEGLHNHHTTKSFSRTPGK
# T2: Macaca fascicularis PDGFRb.mmh (Macaca fascicularis)
# T2 construct: Soluble monomeric construct; also called mfPDGFRb.mmh
# T2 chain: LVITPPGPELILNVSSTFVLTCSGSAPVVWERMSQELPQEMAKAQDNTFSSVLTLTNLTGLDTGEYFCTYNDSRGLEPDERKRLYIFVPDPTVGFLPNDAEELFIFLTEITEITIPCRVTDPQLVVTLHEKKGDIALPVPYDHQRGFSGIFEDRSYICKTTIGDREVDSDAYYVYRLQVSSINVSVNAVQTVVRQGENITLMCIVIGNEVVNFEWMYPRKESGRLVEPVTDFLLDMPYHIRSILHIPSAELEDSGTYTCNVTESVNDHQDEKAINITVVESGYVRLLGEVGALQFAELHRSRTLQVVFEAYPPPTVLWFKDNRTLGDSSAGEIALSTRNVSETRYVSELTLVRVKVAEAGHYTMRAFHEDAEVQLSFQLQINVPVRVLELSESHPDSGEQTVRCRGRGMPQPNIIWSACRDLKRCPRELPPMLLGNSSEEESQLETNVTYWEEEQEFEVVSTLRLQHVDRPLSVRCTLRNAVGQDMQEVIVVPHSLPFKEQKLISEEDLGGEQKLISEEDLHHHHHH
# How the values were obtained:
# [1] = biological target: T3, hPDGFRb.mmh (human, UniProt P09619 33-531); test: blocking ELISA, biot-hPDGFRb.mmh to coated PDGF-BB
# T3 construct: Soluble monomeric construct; also called soluble human PDGFR-beta.mmh
# Method: The equilibrated PDGFR-beta/antibody solutions were added to ligand-coated plates, allowed to incubate for 1 hr, and washed. Levels of bound biot-hPDGFR-beta.mmh were detected using HRP conjugated streptavidin. Data were analyzed using Prism software and IC₅₀ values were calculated as the amount of antibody required to achieve 50% reduction of hPDGFR-beta-mmh bound to ligand. Maximum blocking values were also calculated and reflect the ability of the antibody to block relative to baseline. The absorbance measured at the constant amount of 250 pM biot-hPDGFR-beta-mmh on the dose curve is defined as 0% blocking and the absorbance with no added PDGFR-beta is defined as 100%. The absorbance of the wells containing the highest antibody concentration determined the maximum blocking percent.
# [2] = biological target: T3, hPDGFRb.mmh; test: SPR, mAb captured, 37 C
# Method: (§1) Antibodies, expressed as either mouse Fc (prefix H1M; H2M) or human Fc (prefix H4H), were captured on their respective anti-Fc sensor surfaces (Mab capture format). […] Kinetic association (kₐ) and dissociation (kd) rate constants were determined by processing and fitting the data to a 1:1 binding model using Scrubber 2.0 curve fitting software.
# [3] = biological target: T4, full length human PDGFR-beta on HEK293 cells (human, UniProt P09619 33-1106); test: cell-based or functional assay
# [4] = biological target: T3, hPDGFRb.mmh; test: SPR, mAb captured, 25 C
# Method: as §1
# [5] = biological target: T1, human PDGFRb.mFc; test: SPR, mAb captured, 25 C
# Method: as §1
# [6] = biological target: T2, Macaca fascicularis PDGFRb.mmh; test: SPR, mAb captured, 25 C
# Method: as §1
# [7] = biological target: T4, full length human PDGFR-beta on HEK293 …; test: cell-based or functional assay; remark: listed apart in the source
# [8] = biological target: T3, hPDGFRb.mmh; test: Octet BLI cross-competition, 25 C; hPDGFRb.mmh on anti-Penta-His tips pre-saturated with mAb-1 H4H3374N (row 3)
# Method: (§2) A cross-competition assay was conducted to assess the ability of select antibodies to compete with one another for binding to human PDGFR-beta. […] Each PDGFR-beta.mmh-coated sensor tip was saturated for 5 min with a first anti-PDGFR-beta antibody (Mab #1; 50 μg/mL). Next, each sensor tip was saturated with a solution of a second anti-PDGFR-beta antibody (Mab #2). The real time response of Mab #2 binding to PDGR-beta.mmh pre-complexed with Mab #1 was then monitored. All assays were performed at 25° C. with a flow rate of 1000 rpm on an Octet RED384 biosensor in Octet HBST buffer according to manufacturer's instructions (ForteBio Corp., Menlo Park, Calif.). Results are illustrated in FIG. 2.
# [9] = biological target: T3, hPDGFRb.mmh; test: Octet BLI cross-competition, 25 C; hPDGFRb.mmh on anti-Penta-His tips pre-saturated with mAb-1 H4H3305N (row 8)
# Method: as §2
# [10] = biological target: T3, hPDGFRb.mmh; test: Octet BLI cross-competition, 25 C; hPDGFRb.mmh on anti-Penta-His tips pre-saturated with mAb-1 H4H3094P (row 5)
# Method: as §2
# [11] = biological target: T5, human PDGFRb.hFc (human); test: SPR, mAb captured, 37 C
# T5 construct: Soluble dimeric construct with human Fc; also called hPDGFRb.hFc
# Method: as §1
# [12] = biological target: T2, Macaca fascicularis PDGFRb.mmh; test: SPR, mAb captured, 37 C
# Method: as §1
# [13] = biological target: T3, hPDGFRb.mmh; test: Octet BLI cross-competition, 25 C; hPDGFRb.mmh on anti-Penta-His tips pre-saturated with mAb-1 H4H3103S (row 4)
# Method: as §2
# [14] = biological target: T3, hPDGFRb.mmh; test: Octet BLI cross-competition, 25 C; hPDGFRb.mmh on anti-Penta-His tips pre-saturated with mAb-1 H4H3365N (row 2)
# Method: as §2
# [15] = biological target: T3, hPDGFRb.mmh; test: Octet BLI cross-competition, 25 C; hPDGFRb.mmh on anti-Penta-His tips pre-saturated with mAb-1 H4H3107S (row 7)
# Method: as §2
# [16] = biological target: T3, hPDGFRb.mmh; test: Octet BLI cross-competition, 25 C; hPDGFRb.mmh on anti-Penta-His tips pre-saturated with mAb-1 H4H3099S (row 6)
# Method: as §2
# [17] = biological target: T5, human PDGFRb.hFc; test: SPR, mAb captured, 25 C
# Method: as §1
# [18] = biological target: T3, hPDGFRb.mmh; test: Octet BLI cross-competition, 25 C; hPDGFRb.mmh on anti-Penta-His tips pre-saturated with mAb-1 Control I (row 1)
# Method: as §2
binder,measurement,setting,value
"H2M3368N (antibody, V domains shown, mouse Fc (H2M prefix; isotype not spelled out)) VH: QVQLQQWGAGLLKPSETLSLTCAVYGGSFSGYYWTWIRQSPGKGLEWMGEISHRGTTNYNPSLKSRLTISLDTSNNHFSLKLSSVTAADTAVYYCAREERLGMGYDYFGLDVWGQGTTVTVSS VL: EIVLTQSPATLSLSPGERATLSCRASQSVSTYLTWYQQKPGQAPRLLIYDASNRATGIPARFSGSGSGTDFTLTISSLEPEDCAVYYCQQRSIWITFGQGTRLEIK",% Maximum Blocking,[1],79%
same,IC50,[1],0.13 nM
same,Kd,[2],6.17 nM
same,koff,[2],0.000844 s⁻¹
same,kon,[2],137000 M⁻¹ s⁻¹
same,t1/2,[2],14 min
same,"IC50, blocking PDGF-BB (250 pM) activation, SRE-luciferase",[3],1.8e-10 M
same,"IC50, blocking PDGF-DD (400 pM) activation, SRE-luciferase",[3],1.7e-10 M
same,Kd,[4],7.41 nM
same,koff,[4],0.000341 s⁻¹
same,kon,[4],46100 M⁻¹ s⁻¹
same,t1/2,[4],34 min
same,Kd,[5],0.313 nM
same,koff,[5],3.7e-05 s⁻¹
same,kon,[5],118000 M⁻¹ s⁻¹
same,t1/2,[5],313 min
same,Kd,[6],30 nM
same,koff,[6],0.000185 s⁻¹
same,kon,[6],7000 M⁻¹ s⁻¹
same,t1/2,[6],63 min
"H1M3374N (antibody, V domains shown, mouse Fc format; also called H2M3374N) VH: QLQLQESGPGLVKPSETLSLTCTVSGGSITSSSYYWGWIRQPPGKGLEWIGSIYYRGSTNYNPSLKSRVTISVDSSKNQFYLKVSSVTAVDTAVYYCARQNGAARPSWFDPWGQGTLVTVSS VL: EIVLTQSPDTISLSPGERATLSCRASQSISSIYLAWYQQKPGQAPRLLIYGASSRVTGIPDRFSVSGSGTDFTLTISRLEPEDFAVYYCQHYGISPFTFGPGTKVDIR",% Maximum Blocking,[1],88%
same,IC50,[1],0.077 nM
same,Kd,[2],1.71 nM
same,koff,[2],0.00079 s⁻¹
same,kon,[2],463000 M⁻¹ s⁻¹
same,t1/2,[2],15 min
same,"IC50, blocking PDGF-BB (250 pM) activation, SRE-luciferase",[3],3.1e-10 M
same,"IC50, blocking PDGF-DD (400 pM) activation, SRE-luciferase",[3],2.1e-10 M
same,Kd,[4],1.99 nM
same,koff,[4],0.000331 s⁻¹
same,kon,[4],167000 M⁻¹ s⁻¹
same,t1/2,[4],35 min
same,Kd,[5],0.108 nM
same,koff,[5],0.000107 s⁻¹
same,kon,[5],996000 M⁻¹ s⁻¹
same,t1/2,[5],108 min
same,Kd,[6],2.7 nM
same,koff,[6],0.000371 s⁻¹
same,kon,[6],137000 M⁻¹ s⁻¹
same,t1/2,[6],31 min
"H2M3373N (antibody, V domains shown, mouse Fc (H2M prefix; isotype not spelled out)) VH: EVQLRDSGGGLVQPGGSLRLSCVASGFTFSSYWMSWVRQAPGKGLEWVVNINRDGSEKYYVDSVKGRFIISRDNTKNSLYLQMESLRAEDTAVYYCARDPPYHLYGMDVWGQGTTVTVSS VL: DIQMTQSPSSLSASVGDRVTITCRTSQGIRVDLAWYQQKPGKAPERLIYAASSLQSGVPSRFSGGGSGTEFTLTVSSLQPEDFATYYCLQHHNFPYTFGQGTKLEIK",% Maximum Blocking,[1],80%
same,IC50,[1],0.9 nM
same,Kd,[2],29.8 nM
same,koff,[2],0.0122 s⁻¹
same,kon,[2],410000 M⁻¹ s⁻¹
same,t1/2,[2],0.9 min
same,"IC50, blocking PDGF-BB (250 pM) activation, SRE-luciferase",[3],7e-11 M
same,"IC50, blocking PDGF-DD (400 pM) activation, SRE-luciferase",[3],9.2e-11 M
same,Kd,[4],12.4 nM
same,koff,[4],0.00235 s⁻¹
same,kon,[4],189000 M⁻¹ s⁻¹
same,t1/2,[4],5 min
same,Kd,[5],0.507 nM
same,koff,[5],0.00024 s⁻¹
same,kon,[5],473000 M⁻¹ s⁻¹
same,t1/2,[5],48 min
same,Kd,[6],18.3 nM
same,koff,[6],0.00238 s⁻¹
same,kon,[6],130000 M⁻¹ s⁻¹
same,t1/2,[6],5 min
"H4H3310N (antibody, human IgG4, V domains shown, human IgG4 Fc (H4H prefix)) VH: EVQLLESGGDLVQPGGSLRLSCAASGITFSSFAMSWVRQAPGKGLEWVSTVSVSAGITYYADSVKGRFTISRDNSKNTLYLQMNSLRAEDTAIYYCAKSSCTTNSCPAYFDYWGLGTLVTVSS VL: not shown",Percent Internalization (Relative to Control I),[7],66%
same,Response of mAb-2 Binding to hPDGFRβ.mmh Pre-Complexed with mAb-1 (nm),[8],0.23 nm
same,Response of mAb-2 Binding to hPDGFRβ.mmh Pre-Complexed with mAb-1 (nm),[9],0.01 nm
same,% Maximum Blocking,[1],86%
same,IC50,[1],0.45 nM
same,Response of mAb-2 Binding to hPDGFRβ.mmh Pre-Complexed with mAb-1 (nm),[10],0.27 nm
same,Kd,[2],6.65 nM
same,koff,[2],0.000339 s⁻¹
same,kon,[2],50900 M⁻¹ s⁻¹
same,t1/2,[2],34 min
same,Kd,[11],0.632 nM
same,koff,[11],4.5e-05 s⁻¹
same,kon,[11],71300 M⁻¹ s⁻¹
same,t1/2,[11],256 min
same,Kd,[12],7.62 nM
same,koff,[12],0.000392 s⁻¹
same,kon,[12],51400 M⁻¹ s⁻¹
same,t1/2,[12],29 min
same,Response of mAb-2 Binding to hPDGFRβ.mmh Pre-Complexed with mAb-1 (nm),[13],0.24 nm
same,Response of mAb-2 Binding to hPDGFRβ.mmh Pre-Complexed with mAb-1 (nm),[14],0.24 nm
same,"IC50, blocking PDGF-BB (250 pM) activation, SRE-luciferase",[3],6.8e-10 M
same,"IC50, blocking PDGF-DD (400 pM) activation, SRE-luciferase",[3],6.6e-10 M
same,Response of mAb-2 Binding to hPDGFRβ.mmh Pre-Complexed with mAb-1 (nm),[15],-0.01 nm
same,Response of mAb-2 Binding to hPDGFRβ.mmh Pre-Complexed with mAb-1 (nm),[16],-0.01 nm
same,Kd,[4],3.41 nM
same,koff,[4],8.92e-05 s⁻¹
same,kon,[4],26100 M⁻¹ s⁻¹
same,t1/2,[4],130 min
same,Kd,[17],0.652 nM
same,koff,[17],2.9e-05 s⁻¹
same,kon,[17],44500 M⁻¹ s⁻¹
same,t1/2,[17],398 min
same,Kd,[6],3.75 nM
same,koff,[6],0.000108 s⁻¹
same,kon,[6],28800 M⁻¹ s⁻¹
same,t1/2,[6],107 min
same,Response of mAb-2 Binding to hPDGFRβ.mmh Pre-Complexed with mAb-1 (nm),[18],0.2 nm
